# ± gives the uncertainty stated by the source.
# B1: Transcription factor SOX-11, residues 50 to 117; numbered along this chain, P35716 (parent)
# chain: KRPMNAFMVWSKIERRKIMEQSPDMHNAEISKRLGKRWKMLKDSEKIPFIREAERLRLKHMADYPDYK
# Variants of: B1
# Assay: abundance fitness (aPCA) (normalised: wild type 0, dead -1); higher = more abundant; growth selection in yeast, the domain comes from the species named
# Conditions: Homo sapiens
row,Variant,abundance fitness
1,E20N,-0.236 ± 0.08
2,E20F,-0.496 ± 0.067
3,E20A,-0.348 ± 0.11
4,E20M,-0.723 ± 0.28
5,E20S,-0.36 ± 0.063
6,E20W,-0.577 ± 0.17
7,R15G,-0.397 ± 0.065
8,R15A,-0.217 ± 0.091
9,R15Y,-0.081 ± 0.07
10,R15I,-0.267 ± 0.072
11,R15Q,-0.108 ± 0.18
12,R15N,-0.527 ± 0.1
13,R15P,-1.1 ± 0.33
14,K36R,-0.011 ± 0.067
15,K36T,0.155 ± 0.066
16,K36A,0.084 ± 0.066
17,M19N,-0.426 ± 0.071
18,M19R,-0.24 ± 0.063
19,M19Q,-0.202 ± 0.15
20,K32A,0 ± 0.068
21,K32H,-0.036 ± 0.061
22,K32Q,-0.061 ± 0.12
23,K32S,-0.253 ± 0.056
24,R16T,-0.212 ± 0.075

row,Variant,abundance fitness
1,R16A,0.218 ± 0.062
2,R16L,-0.015 ± 0.065
3,R16I,0.002 ± 0.054
4,R16M,-0.667 ± 0.21
5,R16G,-0.105 ± 0.056
6,E14G,-0.771 ± 0.089
7,E14F,-0.645 ± 0.088
8,E14A,-0.615 ± 0.076
9,E14C,-0.533 ± 0.11
10,R33N,-0.008 ± 0.057
11,R33A,0.22 ± 0.063
12,R33F,-0.001 ± 0.052
13,R33D,0.169 ± 0.068
14,R33E,0.343 ± 0.13
15,N5K,-0.956 ± 0.26
16,N5M,-0.724 ± 0.15
17,N5A,-0.474 ± 0.096
18,N5D,0.147 ± 0.055
19,N5G,-0.433 ± 0.069
20,N5H,-0.621 ± 0.09
21,N5S,0.104 ± 0.045
22,M8D,0.456 ± 0.069
23,M8P,-0.609 ± 0.09
24,M8H,-0.033 ± 0.059

row,Variant,abundance fitness
1,M8L,-0.039 ± 0.047
2,M8A,0.101 ± 0.068
3,M8T,0.165 ± 0.062
4,G35P,-0.234 ± 0.1
5,G35A,0.152 ± 0.06
6,G35D,0.25 ± 0.055
7,G35C,0.129 ± 0.051
8,G35M,0.17 ± 0.1
9,G35V,0.25 ± 0.048
10,G35R,0.142 ± 0.057
11,G35Q,0.212 ± 0.15
12,K12E,0.359 ± 0.14
13,K12F,-0.232 ± 0.067
14,K12M,-0.043 ± 0.25
15,K12Q,0.007 ± 0.19
16,K12Y,-0.448 ± 0.078
17,K12A,0.175 ± 0.062
18,W38Y,-0.641 ± 0.074
19,W38I,-0.716 ± 0.079
20,W38G,-0.865 ± 0.11
21,W38V,-0.766 ± 0.081
22,D24P,-0.836 ± 0.15
23,D24Q,-0.147 ± 0.32
24,D24C,-0.435 ± 0.074

row,Variant,abundance fitness
1,D24W,-0.337 ± 0.16
2,I13M,-0.106 ± 0.098
3,I13C,-0.407 ± 0.067
4,I13E,-0.077 ± 0.14
5,I13N,-0.372 ± 0.059
6,K68N,0.163 ± 0.33
7,A28L,-0.211 ± 0.066
8,A28K,-0.278 ± 0.12
9,A28R,-0.266 ± 0.056
10,A28F,-0.47 ± 0.058
11,A28W,-0.425 ± 0.17
12,S31E,0.489 ± 0.11
13,S31A,0.143 ± 0.056
14,S31Q,-0.213 ± 0.13
15,S31K,-0.096 ± 0.14
16,S31D,0.176 ± 0.059
17,E45S,-0.828 ± 0.091
18,E45R,-0.891 ± 0.13
19,E45F,-0.297 ± 0.052
20,E45L,-0.221 ± 0.054
21,E45P,-0.918 ± 0.2
22,R57C,-0.186 ± 0.058
23,R57M,-0.068 ± 0.13
24,R57Q,-0.057 ± 0.12

row,Variant,abundance fitness
1,R57A,0.023 ± 0.063
2,R57N,0.414 ± 0.045
3,R57P,-0.426 ± 0.11
4,L56V,-0.528 ± 0.063
5,L56K,-0.664 ± 0.23
6,L56N,-0.347 ± 0.06
7,L56G,-0.39 ± 0.066
8,L56S,-0.199 ± 0.051
9,I50C,-0.59 ± 0.072
10,I50F,-0.034 ± 0.052
11,I50E,0.248 ± 0.11
12,I50D,-0.425 ± 0.071
13,I50H,-0.005 ± 0.06
14,I50L,-0.161 ± 0.063
15,I50Q,-0.007 ± 0.18
16,I50M,0.013 ± 0.14
17,I50K,-0.228 ± 0.17
18,P3F,-0.292 ± 0.12
19,P3V,-0.294 ± 0.086
20,P3K,-0.044 ± 0.18
21,P3E,0.073 ± 0.18
22,P3I,-0.279 ± 0.1
23,W10H,-0.783 ± 0.11
24,W10F,-0.253 ± 0.054

row,Variant,abundance fitness
1,W10V,-0.872 ± 0.13
2,W10K,-0.627 ± 0.23
3,W10G,-0.797 ± 0.14
4,R37L,-0.085 ± 0.053
5,R37A,0.117 ± 0.054
6,R37G,0.01 ± 0.056
7,R37D,-0.27 ± 0.056
8,R37V,-0.271 ± 0.052
9,R37H,-0.129 ± 0.07
10,R37W,-0.418 ± 0.2
11,R37E,0.188 ± 0.1
12,R37F,-0.764 ± 0.072
13,L41H,-0.951 ± 0.13
14,L41C,-0.876 ± 0.098
15,L41Q,-0.721 ± 0.31
16,L41R,-0.762 ± 0.097
17,L41E,-1.04 ± 0.35
18,L41K,-0.666 ± 0.23
19,L41F,-0.791 ± 0.076
20,L41I,-0.652 ± 0.078
21,L41G,-0.702 ± 0.078
22,K17P,-0.566 ± 0.13
23,K17T,-0.458 ± 0.093
24,K17V,-0.6 ± 0.085

row,Variant,abundance fitness
1,K17Q,-0.199 ± 0.39
2,K17N,-0.407 ± 0.061
3,K17Y,-0.564 ± 0.075
4,S11V,-0.597 ± 0.15
5,S11C,-0.4 ± 0.1
6,S11D,-1.11 ± 0.25
7,S11T,-0.602 ± 0.2
8,L34F,-0.68 ± 0.066
9,L34V,-0.531 ± 0.072
10,L34W,-0.909 ± 0.14
11,L34A,-0.938 ± 0.13
12,K39Y,-0.683 ± 0.071
13,K39L,-0.274 ± 0.078
14,K39G,-0.084 ± 0.055
15,K39N,-0.045 ± 0.053
16,K39M,-0.211 ± 0.12
17,K39P,-0.868 ± 0.19
18,K39W,-1.03 ± 0.36
19,R51H,-0.289 ± 0.073
20,R51Y,-0.238 ± 0.058
21,F49E,-0.792 ± 0.46
22,F49R,-0.767 ± 0.091
23,F49Y,0.048 ± 0.053
